Here are results for six substances from IntAct's records for PubMed 22307056.

One assay has as its target mk03_mouse Mapk3 (UniProt Q63844).
Another assay deals with fbw1b_human FBXW11 (UniProt Q9UKB1).
Sequence of fbw1b_human FBXW11 (Q9UKB1 whole entry): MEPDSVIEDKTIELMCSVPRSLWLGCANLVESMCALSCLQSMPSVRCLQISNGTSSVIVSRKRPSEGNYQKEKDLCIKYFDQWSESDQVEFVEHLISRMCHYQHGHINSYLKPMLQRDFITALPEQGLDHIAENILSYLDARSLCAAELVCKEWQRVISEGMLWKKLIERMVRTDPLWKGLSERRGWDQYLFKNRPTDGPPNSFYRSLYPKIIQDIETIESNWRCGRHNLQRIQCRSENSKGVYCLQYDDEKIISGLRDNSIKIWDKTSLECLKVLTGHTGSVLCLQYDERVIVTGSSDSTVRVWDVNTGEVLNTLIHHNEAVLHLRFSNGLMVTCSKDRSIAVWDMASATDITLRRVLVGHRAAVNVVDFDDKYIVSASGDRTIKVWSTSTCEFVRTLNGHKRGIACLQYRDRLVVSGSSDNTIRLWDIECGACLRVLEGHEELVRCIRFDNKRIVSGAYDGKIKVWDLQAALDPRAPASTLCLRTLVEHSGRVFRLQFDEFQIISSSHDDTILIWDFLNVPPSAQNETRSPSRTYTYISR

Sequence of mk03_mouse Mapk3 (Q63844 whole entry): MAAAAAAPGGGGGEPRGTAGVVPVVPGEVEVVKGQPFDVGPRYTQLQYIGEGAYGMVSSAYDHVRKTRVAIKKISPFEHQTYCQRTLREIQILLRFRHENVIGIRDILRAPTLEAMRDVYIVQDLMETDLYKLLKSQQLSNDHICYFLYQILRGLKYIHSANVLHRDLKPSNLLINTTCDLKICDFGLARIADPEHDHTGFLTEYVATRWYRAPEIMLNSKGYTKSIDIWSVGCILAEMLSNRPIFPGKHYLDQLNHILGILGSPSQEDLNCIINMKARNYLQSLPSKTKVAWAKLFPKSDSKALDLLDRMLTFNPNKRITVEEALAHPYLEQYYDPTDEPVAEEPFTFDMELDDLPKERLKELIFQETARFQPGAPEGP
Sequence of Krueppel-like factor 4 (Mus musculus), Q60793 S132A (Q60793 whole entry S132A): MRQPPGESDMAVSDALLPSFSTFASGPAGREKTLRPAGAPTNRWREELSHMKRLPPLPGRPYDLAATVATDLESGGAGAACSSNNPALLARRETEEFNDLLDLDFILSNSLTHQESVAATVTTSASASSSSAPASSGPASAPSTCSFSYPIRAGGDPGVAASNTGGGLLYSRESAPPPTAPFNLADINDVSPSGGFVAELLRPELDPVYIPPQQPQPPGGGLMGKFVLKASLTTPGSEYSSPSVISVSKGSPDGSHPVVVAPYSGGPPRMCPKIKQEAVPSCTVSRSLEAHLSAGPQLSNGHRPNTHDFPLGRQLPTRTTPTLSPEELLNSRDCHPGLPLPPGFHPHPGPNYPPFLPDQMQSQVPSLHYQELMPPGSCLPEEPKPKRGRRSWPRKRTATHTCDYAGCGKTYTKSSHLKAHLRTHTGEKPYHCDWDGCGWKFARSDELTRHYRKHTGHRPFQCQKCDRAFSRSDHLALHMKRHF
Sequence of Krueppel-like factor 4 (Mus musculus), Q60793 L101A;L103A (Q60793 whole entry L101A/L103A): as the sequence (Q60793 whole entry S132A) above, with L101A, L103A, A132S counted along it
Sequence of Krueppel-like factor 4 (Mus musculus), Q60793 L89A;R91A;R92A (Q60793 whole entry L89A/R91A/R92A): as the sequence (Q60793 whole entry S132A) above, with L89A, R91A, R92A, A132S counted along it
Sequence of Krueppel-like factor 4 (Mus musculus), Q60793 S140A (Q60793 whole entry S140A): as the sequence (Q60793 whole entry S132A) above, with A132S, S140A counted along it
Sequence of Krueppel-like factor 4 (Mus musculus), Q60793 S136A (Q60793 whole entry S136A): as the sequence (Q60793 whole entry S132A) above, with A132S, S136A counted along it
Sequence of Krueppel-like factor 4 (Mus musculus), Q60793 L89A;R91A;R92A;L101A;L103A (Q60793 whole entry L89A/R91A/R92A/L101A/L103A): as the sequence (Q60793 whole entry S132A) above, with L89A, R91A, R92A, L101A, L103A, A132S counted along it

On to “Krueppel-like factor 4 (Mus musculus), Q60793 L89A;R91A;R92A”, for which the “effect of a mutation on the interaction” value with mk03_mouse Mapk3 was “disrupting interaction strength”.

Turning to “Krueppel-like factor 4 (Mus musculus), Q60793 L89A;R91A;R92A;L101A;L103A”, in the assay with mk03_mouse Mapk3, the “effect of a mutation on the interaction” value is on record as “disrupting interaction strength”.

For the substance “Krueppel-like factor 4 (Mus musculus), Q60793 L101A;L103A”, the “effect of a mutation on the interaction” value with mk03_mouse Mapk3 is given as “decreasing interaction strength”.

Take “Krueppel-like factor 4 (Mus musculus), Q60793 S132A”: the “effect of a mutation on the interaction” value with fbw1b_human FBXW11 is listed as “decreasing interaction strength”.

In the case of “Krueppel-like factor 4 (Mus musculus), Q60793 S136A”, the “effect of a mutation on the interaction” value with fbw1b_human FBXW11 is given as “decreasing interaction strength”.

In the case of “Krueppel-like factor 4 (Mus musculus), Q60793 S140A”, the “effect of a mutation on the interaction” value with fbw1b_human FBXW11 is “decreasing interaction strength”.
